Experimental findings from patent publication US20260028421A1 (JIANGSU HENGRUI PHARMACEUTICALS, published 2026) are described below.

The target in experiment [1] is T1, hGUCY2C ECD-His (human, UniProt P25092 24-430).
T1 construct: also called human GUCY2C protein
Kind of experiment: ELISA, antigen on streptavidin plate. As for the experimental part: In this test example, the binding activity of the GUCY2C-CD3 bispecific antibodies for human GUCY2C was detected by ELISA. The specific procedures are as follows:
The plate was coated by adding 100 ng of streptavidin (ACRO #STN-N5116) to the reaction wells and incubated overnight at 4° C. After the blocking with 1% BSA (PBS), 100 ng of hGUCY2C ECD-His was added, and the mixture was incubated at 37° C. for 1 h. After plate washing, the gradiently diluted antibody was added, and the mixture was incubated at 37° C. for 1 h. […] After plate washing, a substrate solution was added, and a stop solution was then added after sufficient color development to stop the reaction. The signal values at […] were read using a microplate reader.
Background: An ELISA detects its analyte on a solid surface through an enzyme-linked reagent.

Experiment [2] deals with T2, Human GUCY2C protein on cells (HCT116/hGUCY2C, HT-55, T84, LS1034, LS174T) (human, UniProt P25092 24-1073).
T2 construct: also called GUCY2C on the cell surface
Put plainly: flow cytometry on HCT116/hGUCY2C cells, R-PE goat anti-human IgG secondary antibody. A general note: Flow cytometry measures light scatter and fluorescence of single cells or particles in a stream.
Description: Experiment 1: 1E5 cells resuspended in 1% BSA were added to the reaction wells, and the supernatant was removed after centrifugation. Diluted antibody of the corresponding concentration was added, and the mixture was incubated at room temperature for 30 min and then washed twice with 1% BSA. […] After the plate was washed twice with 10% BSA, fluorescence signals were read using a flow cytometer.

Experiment [3] has as its target T1, hGUCY2C ECD-His. Kind of experiment: SPR Biacore, antibody captured. (In general: In SPR one partner is held on a chip, and binding of the other changes the refractive index at the surface.)
The target of experiment [4] is T2, Human GUCY2C protein on cells …. Put plainly: flow cytometry on T84 cells, PE anti-human IgG Fc secondary antibody.
For experiment [5] the target is unchanged. Put plainly: cell-based or functional assay.
The target is the same in experiment [6]. Kind of experiment: cell-based or functional assay. The source holds these as a separate data set.
Experiment [7] has the same target. Kind of experiment: cell-based or functional assay. The source holds these as a separate data set.

Like-named read-outs stand apart in the source and are kept apart here.

B1: 1608-BsAb (bispecific antibody)
chain 1: DIQLTQSPSSLSASVGDRVTITCRASESVDYYGSSLLQWYQQKPGKAPKLLIYAASKLASGVPSRFSGSGSGTDFTLTISSLQPEDFATYYCQQTRKAYTFGQGTKLEIKGGGSGGGGEVQLVESGGGLVQPGGSLRLSCAASGFTFSDYYMTWVRQAPGKGLEWVAFIRNQARGYTSDHNPSVKGRFTISRDNAKNSLYLQMNSLRAEDTAVYYCARDRPSYYVLDYWGQGTTVTVSSGCPPCPAPEAAGAPSVFLFPPKPKDTLMISRTPEVTCVVVDVSHEDPEVKFNWYVDGVEVHNAKTKPREEQYNSTYRVVSVLTVLHQDWLNGKEYKCKVSNKALPAPIEKTISKAKGQPREPQVCTLPPSREEMTKNQVSLWCLVKGFYPSDIAVEWESNGQPENNYKTTPPVLDSDGSFFLYSKLTVDKSRWQQGNVFSCSVMHEALHNHYTQKSLSLSPG
chain 2: DIQMTQSPSSLSASVGDRVTITCTSSQSLFNVRSQKNYLAWYQQKPGKAPKLLIYWASTRESGVPSRFSGSGSGTDFTLTISSLQPEDFATYYCKQSYDLFTFGGGTKVEIKGGGGSGGGGEVQLVESGGGLVQPGGSLRLSCAASGFTFSSYWMHWVRQAPGKGLEWIGEIKPSNELTNVHEKFKDRFTISVDKAKNSAYLQMNSLRAEDTAVYYCTRTITTTEGYWFFDVWGQGTLVTVSSGCPPCPAPEAAGAPSVFLFPPKPKDTLMISRTPEVTCVVVDVSHEDPEVKFNWYVDGVEVHNAKTKPREEQYNSTYRVVSVLTVLHQDWLNGKEYKCKVSNKALPAPIEKTISKAKGQPREPQVYTLPPCREEMTKNQVSLSCAVKGFYPSDIAVEWESNGQPENNYKTTPPVLDSDGSFFLVSKLTVDKSRWQQGNVFSCSVMHEALHNHYTQKSLSLSPG
For B1, the EC50 with hGUCY2C ECD-His [1] amounted to 1.23 nM. In addition, in experiment [2], the “EC50 (read off the curve)” value is about 1 nM.

B2: M42 CHI (antibody, human IgG1, kappa, V domains shown)
VH: QIQLKQSGPGLVQPSQSLSITCTVSGFSLTSYAVHWVRQSPGKGLEWLGVIWTGGNTRSNAAFMSRLTITKDNSKSQVFFKMNSLQADDTAIYFCAKNSLLDYAMDYWGQGTSVTVSS
VL: ENVLTQSPVIMSASPGEKVTMTCRASSFVGSGYLHWYQQKSGASPKLWIYSTSKLASGVPARFSGSGSGTSFFLTISRVEIEDAAAYYCQQSSGYPLTFGGGSKLEIKR
notes: chimeric
In the experiment with hGUCY2C ECD-His [3], B2 had a Kd of 8.99 nM, a koff of 0.000335 s⁻¹ and a kon of 37300 M⁻¹ s⁻¹. In experiment [4], the “EC50 (read off the curve)” value is about 0.5 nM.

B3: P3-C7 L7H1-3 (bispecific antibody)
heavy 1: not shown
light 1: DVVMTQTPLSLPVTPGEPASISCRSSQSLVHSNQNTYLHWYLQKPGQSPQLLIYKVSNRFSGVPDRFSGSGSRTDFTLKISRVEAEDVGVYYCSQSTHVPYTFGGGTKVEIKGGGGSGIPPKIECLPIDISIDEGKVLTVASAFTGEPTPEVTWSTGGRKIHSQEQGRFHIENTDDSTTLTIKDVQKQDGGLYTLTLRNEFGSDSATVNIHIRSI
heavy 2: not shown
light 2: not shown
On to B3, for which, in experiment [5], the “IC50 (nM), killing of LS174T with PBMC” value is 0.49 nM.

B4: M61 CHI (antibody, human IgG1, kappa, V domains shown)
VH: EVQLQQSGPELVRPGASVKISCTASGYTITDYYMSWVKQSHGKSPEWIGDINPNNGGTSDNQKFKGKATLTVDKSSSTAYMEYRSLTSEDSAVYYCARGRGMVARYFDIWGTGTTVTVSS
VL: EILLTQSPTTMAASPGEKITITCSASSSISSNFLHWYQEKPGFSPKLLIYRTSNLASGVPARFSGSGSGTSYSLTIGSMEAEDVATYYCQQGSGLPLTFGAGTKLELKR
notes: chimeric
With B4, in the experiment with hGUCY2C ECD-His [3], binding was characterised by a dissociation constant (Kd) of 4.49 nM, the koff worked out at 0.000228 s⁻¹ and the kon is 50800 M⁻¹ s⁻¹. The “EC50 (read off the curve)” value in experiment [4] was about 2 nM.

B5: 146 L1H1-2 (bispecific antibody)
heavy 1: not shown
light 1: not shown
heavy 2: EFQLVQSGAEVKKPGASVKVSCKASGYSFTDYNMNWVRQAPGQRLEWMGLINPKYGTTNYNQKFKGRVTLTVDQSSSTAYMELSSLRSEDTAVYYCARDNYPAWFAYWGQGTTVTVSSGGGGSSGAPRFLTRPKASVVSVGKDATLSCQIVGNPFPQVSWEKDKQPVTAGVRFRLAQDGDLYRLKILDLQLSDSGQYVCRARNAHGEAFACLGLQVDAEADKTHTCPPCPAPEAAGGPSVFLFPPKPKDTLMISRTPEVTCVVVDVSHEDPEVKFNWYVDGVEVHNAKTKPREEQYNSTYRVVSVLTVLHQDWLNGKEYKCKVSNKALPAPIEKTISKAKGQPREPQVCTLPPSREEMTKNQVSLSCAVKGFYPSDIAVEWESNGQPENNYKTTPPVLDSDGSFFLVSKLTVDKSRWQQGNVFSCSVMHEALHNHYTQKSLSLSPGK
light 2: EIVLTQSPATLSLSPGERATLSCSASSSLNYMYWYQQKPGSSPRPWIYRTSQLASGVPARFSGSGSGTDYTLTISSLEPEDFAVYYCQQYHSYPPTFGGGTKVEIKGGGGSGIPPKIECLPIDISIDEGKVLTVASAFTGEPTPEVTWSTGGRKIHSQEQGRFHIENTDDSTTLTIKDVQKQDGGLYTLTLRNEFGSDSATVNIHIRSI
notes: GUCY2C-CD3, Format 2, CD3 arm S107E
On to B5, for which, in the experiment with hGUCY2C ECD-His [1], the EC50 came out at 0.06 nM. Further, in experiment [6], the “IC50 (nM), killing of HT-55(++) with PBMC” value was found to be 0.56 nM; the “IC50 (nM), killing of LS174T(+) with PBMC” value turned out to be 0.49 nM; the “IC50 (nM), killing of LS1034(+++) with PBMC” value turned out to be 0.17 nM.

B6: 81 L3H1-2 (N103QN106Q) (bispecific antibody)
heavy 1: not shown
light 1: not shown
heavy 2: EVQLVQSGAEVKKPGASVKVSCKASGYTFTDHNMNWVKQAPGQRLEWMGVMNPKFGTINYNQKFKDKATITRDTSASTAYMELSSLRSEDTAVYYCARDNYPNYFDYWGQGTTVTVSSGGGGSSGAPRFLTRPKASVVSVGKDATLSCQIVGNPFPQVSWEKDKQPVTAGVRFRLAQDGDLYRLKILDLQLSDSGQYVCRARNAHGEAFACLGLQVDAEADKTHTCPPCPAPEAAGGPSVFLFPPKPKDTLMISRTPEVTCVVVDVSHEDPEVKFNWYVDGVEVHNAKTKPREEQYNSTYRVVSVLTVLHQDWLNGKEYKCKVSNKALPAPIEKTISKAKGQPREPQVCTLPPSREEMTKNQVSLSCAVKGFYPSDIAVEWESNGQPENNYKTTPPVLDSDGSFFLVSKLTVDKSRWQQGNVFSCSVMHEALHNHYTQKSLSLSPGK
light 2: DIQLTQSPSFLSASPGDRVTITCSASSSVNYMYWYQQKPGSSPKSWIYRTSNLASGVPSRFSGSGSGTEYTLTISSLQPEDFATYYCQQYHDYPPTFGGGTKVEIKGGGGSGIPPKIECLPIDISIDEGKVLTVASAFTGEPTPEVTWSTGGRKIHSQEQGRFHIENTDDSTTLTIKDVQKQDGGLYTLTLRNEFGSDSATVNIHIRSI
In the case of B6, in experiment [7], the “IC50 (nM), killing of LS174T with PBMC” value amounted to 0.16 nM.

As usually defined, the EC50 is the concentration needed to bring the measured effect to its halfway point. Higher therefore signals a less potent agent. Usually EC50 (read off the curve) stands for the midpoint of the concentration-response curve. A higher EC50 (read off the curve) goes with weaker potency. As a reminder, the Kd is the free concentration of one partner at which half of the binding sites on the other are occupied at equilibrium, for simple one-to-one binding. The term koff denotes the first-order rate constant of dissociation. Low values mean a long-lived complex, high ones a short-lived complex. What is called kon is the rate constant with which the complex forms. Read a high kon as fast association.
